Laboratory results published in patent US20190270815A1 (published 2019).

Assays:
[1] = target: T1, human PD-1 expressed on cells (human, UniProt Q15116 25-288); test: FACS blocking of PD-L1 binding
recombinant human PD-1 = recombinant human PD-1 (human, UniProt Q15116 25-167); test: SPR
[2] = target: T1, human PD-1 expressed on cells; test: FACS

Sequence of recombinant human PD-1 (Q15116 25-167): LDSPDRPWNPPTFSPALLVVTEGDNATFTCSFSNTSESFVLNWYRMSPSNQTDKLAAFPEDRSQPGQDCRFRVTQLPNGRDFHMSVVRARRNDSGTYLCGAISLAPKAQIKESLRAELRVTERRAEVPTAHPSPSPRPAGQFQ
T1 sequence (Q15116 25-288): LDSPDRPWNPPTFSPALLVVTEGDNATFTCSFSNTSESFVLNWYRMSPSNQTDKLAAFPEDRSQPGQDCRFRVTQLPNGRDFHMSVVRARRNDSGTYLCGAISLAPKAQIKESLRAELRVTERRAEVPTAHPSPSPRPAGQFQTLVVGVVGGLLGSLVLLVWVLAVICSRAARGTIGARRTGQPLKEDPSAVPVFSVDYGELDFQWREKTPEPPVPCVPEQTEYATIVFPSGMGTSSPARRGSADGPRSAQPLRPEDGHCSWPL

Row | Binder | IC50 [1] | Kd (recombinant human PD-1) | EC50 [2]
1 | 1.103.11 hAb (antibody, V domains shown) VH: QLQLQESGPGLVKPSETLTLTCTVSADSISSTTYYWVWIRQPPGKGLEWIGSISYSGSTYYNPSLKSRVTVSVDTSKNQFSLKLNSVAATDTALYYCARHLGYNGRYLPFDYWGQGTLVTVSS VL: QSALTQPASVSGSPGQSITISCTGTSSDVGFYNYVSWYQQHPGKAPELMIYDVSNRPSGVSDRFSGSKSGNTASLTISGLQAEDEADYYCSSYTNISTWVFGGGTKLTVL | 4.44 nM | 0.175 nM | 2.09 nM
2 | 1.49.9 hAb (antibody, V domains shown) VH: QLQLQESGPGLVKPSETLSLTCTVSGGSISSSTYYWGWIRQPPGKGLEWIGSISYSGSTYYNPSLKSRVTISVDTSKNQFSLKLSSVTDADTAVYYCARHLGYNGRYLPFDYWGQGTLVTVSS VL: QSALTQPASVSGSPGQSITISCTGTSSDVGFYNYVSWYQQHPGKAPEVMIYDVSNRPSGVSDRFSGSKSGNTASLTISGLQAEDEADYYCSSYTSISTWVFGGGTKLTVL | 4.21 nM | 1.07 nM | 2.15 nM
3 | 1.153.7 hAb (antibody, V domains shown) VH: EVQLLESGGGLVQPGGSLRLSCAASGFTFSSHAMSWVRQAPGKGLEWVSTITGGGGSIYYADSVKGRFTISRDNSKNTLYLQMNSLRAEDTAVYYCAKNRAGEGYFDYWGQGTLVTVSS VL: SYELTQPLSVSVALGQTARITCGGDNIGNKDVHWYQQKPGQAPVLVIYRDSNRPSGIPEGFSGSNSGNTATLTISRAQAGDEADYYCQVWDSIWVFGGGTKLTVL | 4.49 nM | 2.79 nM | 2.62 nM

Stronger by IC50 [1], values ahead:

Row | IC50 [1] | Kd (recombinant human PD-1) | EC50 [2] | Binder
4 | 3.51 nM | 0.176 nM | 2.44 nM | 1.7.3 hAb (antibody, V domains shown) VH: QLQLQESGPGLVKPSETLTLTCTVSGDSISSTTYYWVWIRQPPGKGLEWIGSISYSGNTYYNPSLKSRVTISVDTSKNHFSLKLSSVAATDTALYYCARHLGYNGRYLPFDYWGQGTLVTVSS VL: QSALTQPASVSGSPGQSITISCTGTSSDVGFYNYVSWYQQHPGKAPELMIYDVTNRPSGVSDRFSGSKSGNTASLTISGLQAEDEADYYCSSYTSISTWVFGGGTKLTVL
5 | 3.1 nM | 3.71 nM | 1.92 nM | 1.139.15 hAb (antibody, V domains shown) VH: QLQLQESGPGLVKPSETLSLTCTVSGGSISSTTYYWGWIRQPPGKGLEWIGSISYSGTTYYNPSLKSRVTIPVDTSKNQISLKLSSVTAADTSLYYCARHLGYNSNWYPFDYWGQGTLVTVSS VL: QSALTQPPSVSGSPGQSVTISCTGTSSDVGSYNRVSWYQQPPGTAPEVIIYEVSNRPSGVPDRFSGSKSGNTASLTISGLQAEDEADYYCSSYTSSSTWVFGGGTKLTVL
